Patent US20260097113A1 (Pfizer, published 2026)

Tests used:
[1] = target: RSV A + RSV B bivalent composition (RSV subtype A; RSV subtype B); assay: AM14 Fab titration by SEC; Low-Fast cycle; 3 M 40°C
[2] = target: RSV A + RSV B bivalent composition (RSV subtype A; RSV subtype B); assay: AM14 Fab titration by SEC; Low-Fast cycle; 3 M 2-8°C
[3] = target: RSV A + RSV B bivalent composition (RSV subtype A; RSV subtype B); assay: AM14 Fab titration by SEC; High-Slow 2 cycle; 3 M 25°C
[4] = target: RSV A + RSV B bivalent composition (RSV subtype A; RSV subtype B); assay: AM14 Fab titration by SEC; High-Slow 2 cycle; 3 M 40°C
[5] = target: RSV A + RSV B bivalent composition (RSV subtype A; RSV subtype B); assay: AM14 Fab titration by SEC; High-Slow 2 cycle; 8 M 25°C
[6] = target: RSV A + RSV B bivalent composition (RSV subtype A; RSV subtype B); assay: AM14 Fab titration by SEC; High-Slow 1 cycle; T0 (second value)
[7] = target: RSV A + RSV B bivalent composition (RSV subtype A; RSV subtype B); assay: AM14 Fab titration by SEC; Low-Fast cycle; 1 M 25°C (second value)
[8] = target: RSV A + RSV B bivalent composition (RSV subtype A; RSV subtype B); assay: AM14 Fab titration by SEC; composition of Table 17; Pre-lyo Prep 1, T0 (second value)
[9] = target: T1, RSV F protein of subtype A comprising a polypeptide of SEQ ID NO: 1 and a polypeptide of SEQ ID NO: 2 (RSV subtype A, UniProt P11209 137-513; P03420 26-109); assay: AM14 ELISA; F2 (pH 8, 0 mM NaCl, 0% sucrose); T0
T1 construct: Stabilized prefusion F trimer made of three F2-F1 heterodimers; Produced recombinantly in CHO cells; also called RSV A; RSVA
T1 chain 1: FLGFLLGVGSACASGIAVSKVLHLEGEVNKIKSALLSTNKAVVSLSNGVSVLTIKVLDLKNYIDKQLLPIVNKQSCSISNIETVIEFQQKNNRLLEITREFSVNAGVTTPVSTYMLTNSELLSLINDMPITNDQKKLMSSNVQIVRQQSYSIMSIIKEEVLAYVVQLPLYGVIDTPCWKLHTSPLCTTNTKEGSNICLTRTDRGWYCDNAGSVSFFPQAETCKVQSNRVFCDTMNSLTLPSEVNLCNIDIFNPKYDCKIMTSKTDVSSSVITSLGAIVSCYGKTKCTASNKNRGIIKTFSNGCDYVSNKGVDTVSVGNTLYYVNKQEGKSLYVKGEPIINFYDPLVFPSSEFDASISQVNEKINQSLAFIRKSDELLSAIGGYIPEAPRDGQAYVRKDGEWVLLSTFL
T1 chain 2: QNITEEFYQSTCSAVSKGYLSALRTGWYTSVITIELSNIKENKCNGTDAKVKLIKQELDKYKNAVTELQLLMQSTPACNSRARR

[10] = target: T1, RSV F protein of subtype A comprising a …; assay: AM14 ELISA; F17 (pH 7, 50 mM NaCl, 4.5% trehalose); T0
[11] = target: T1, RSV F protein of subtype A comprising a …; assay: AM14 ELISA; F15 (pH 6, 0 mM NaCl, 9% sucrose); 1 wk 5°C
[12] = target: T1, RSV F protein of subtype A comprising a …; assay: AM14 ELISA; F2 (pH 8, 0 mM NaCl, 0% sucrose); 1 wk 25°C
[13] = target: T1, RSV F protein of subtype A comprising a …; assay: AM14 ELISA; F16 (pH 6, 0 mM NaCl, 0% sucrose); 2 wk 25°C
[14] = target: T1, RSV F protein of subtype A comprising a …; assay: AM14 ELISA; F8 (pH 7, 50 mM NaCl, 0% sucrose); 2 wk 25°C
[15] = target: T1, RSV F protein of subtype A comprising a …; assay: AM14 ELISA; F5 (pH 6, 100 mM NaCl, 9.0% sucrose); 2 wk 5°C
[16] = target: T1, RSV F protein of subtype A comprising a …; assay: AM14 ELISA; F9 (pH 8, 50 mM NaCl, 4.5% sucrose); 1 wk 25°C
[17] = target: T1, RSV F protein of subtype A comprising a …; assay: AM14 ELISA; F10 (pH 7, 50 mM NaCl, 4.5% sucrose); 1 wk 25°C
[18] = target: T1, RSV F protein of subtype A comprising a …; assay: AM14 ELISA; F17 (pH 7, 50 mM NaCl, 4.5% trehalose); 1 wk 5°C

Molecule | Prefusion Content (%) [1] | Prefusion Content (%) [2] | Prefusion Content (%) [3] | Prefusion Content (%) [4] | Prefusion Content (%) [5] | Prefusion Content (%) [6] | Prefusion Content (%) [7] | Prefusion Content (%) [8] | AM14 prefusion content (%), relative to standard [9] | AM14 prefusion content (%), relative to standard [10] | AM14 prefusion content (%), relative to standard [11] | AM14 prefusion content (%), relative to standard [12] | AM14 prefusion content (%), relative to standard [13] | AM14 prefusion content (%), relative to standard [14] | AM14 prefusion content (%), relative to standard [15] | AM14 prefusion content (%), relative to standard [16] | AM14 prefusion content (%), relative to standard [17] | AM14 prefusion content (%), relative to standard [18]
AM14 Fab | 70% | 56% | 74% | 59% | 71% | 68% | 71% | 84% |  |  |  |  |  |  |  |  |  | 
AM14 (trimeric prefusion specific antibody of the AM14 ELISA) (antibody, V domains shown, Antibody as used in the AM14 ELISA, detected with an HRP-labeled secondary antibody) VH: EVQLVESGGGVVQPGRSLRLSCAASGFSFSHYAMHWVRQAPGKGLEWVAVISYDGENTYYADSVKGRFSISRDNSKNTVSLQMNSLRPEDTALYYCARDRIVDDYYYYGMDVWGQGATVTVSS VL: DIQMTQSPSSLSASVGDRVTITCQASQDIKKYLNWYHQKPGKVPELLMHDASNLETGVPSRFSGRGSGTDFTLTISSLQPEDIGTYYCQQYDNLPPLTFGGGTKVEIKR |  |  |  |  |  |  |  |  | 86% | 86% | 86% | 58% | 76% | 85% | 76% | 84% | 82% | 59%
